From patent US20080070791A1 (ZEPHYR PROTEOMIX, published 2008)

Target: T1, α4β1 integrin expressed on Jurkat cells (human, UniProt P13612 34-1032; P05556 21-798)
T1 construct: whole, on cells; Fluorescence-labeled Jurkat cells applied to the microarray; also called receptor recognizing the CS1 peptide
Test: cell adhesion of labeled Jurkat cells on microarray
Experimental: Jurkat T-cells, a human leukemia line, were grown under the appropriate growing conditions. Shortly before the adherence assay, cells were washed with 5 mM EDTA in Tris-buffered saline (TBS, 10 mM Tris-HCl, pH 7.4, 150 mM NaCl) and then incubated with Cyto 82 (2 μM final concentration) for 30 min under continuous agitation. Labeled cells were washed twice with the same buffer and applied directly on the fabricated microarray slides.
The model of interaction chosen for this purpose was α4β1-CS1-interaction model. α4β1 is an integrin expressed by several types of adherent cells and can mediate cell matrix contact trough the known ligand fibronectin. […] The slides were washed extensively and the interaction was scanned by the microarray scanner (FIG. 12).

T1 sequence (P13612 34-1032, chain 1 of 2): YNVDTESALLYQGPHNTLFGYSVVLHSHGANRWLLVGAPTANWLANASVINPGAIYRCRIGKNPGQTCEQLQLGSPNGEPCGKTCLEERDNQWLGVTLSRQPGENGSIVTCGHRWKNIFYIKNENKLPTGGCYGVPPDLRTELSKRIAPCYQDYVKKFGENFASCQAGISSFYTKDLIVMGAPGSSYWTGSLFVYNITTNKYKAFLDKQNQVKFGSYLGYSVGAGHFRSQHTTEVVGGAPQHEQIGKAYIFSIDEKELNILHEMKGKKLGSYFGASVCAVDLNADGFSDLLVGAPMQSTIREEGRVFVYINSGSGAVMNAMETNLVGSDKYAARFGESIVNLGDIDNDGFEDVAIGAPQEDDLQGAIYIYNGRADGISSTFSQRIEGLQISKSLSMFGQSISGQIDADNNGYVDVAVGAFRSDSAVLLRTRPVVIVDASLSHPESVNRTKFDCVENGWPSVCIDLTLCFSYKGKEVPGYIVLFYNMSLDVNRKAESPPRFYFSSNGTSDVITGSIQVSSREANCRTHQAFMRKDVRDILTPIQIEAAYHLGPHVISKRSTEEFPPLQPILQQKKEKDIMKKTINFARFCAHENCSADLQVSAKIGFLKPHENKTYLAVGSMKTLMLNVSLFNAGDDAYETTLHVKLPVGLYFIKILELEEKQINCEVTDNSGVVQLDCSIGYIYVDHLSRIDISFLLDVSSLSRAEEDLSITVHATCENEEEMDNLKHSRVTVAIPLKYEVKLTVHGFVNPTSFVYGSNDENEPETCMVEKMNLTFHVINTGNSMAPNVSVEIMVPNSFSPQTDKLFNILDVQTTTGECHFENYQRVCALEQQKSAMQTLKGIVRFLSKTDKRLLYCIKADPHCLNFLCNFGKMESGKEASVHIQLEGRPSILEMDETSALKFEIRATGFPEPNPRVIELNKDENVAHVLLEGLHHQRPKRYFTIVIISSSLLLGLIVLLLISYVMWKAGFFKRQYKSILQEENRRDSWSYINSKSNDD
T1 sequence (P05556 21-798, chain 2 of 2): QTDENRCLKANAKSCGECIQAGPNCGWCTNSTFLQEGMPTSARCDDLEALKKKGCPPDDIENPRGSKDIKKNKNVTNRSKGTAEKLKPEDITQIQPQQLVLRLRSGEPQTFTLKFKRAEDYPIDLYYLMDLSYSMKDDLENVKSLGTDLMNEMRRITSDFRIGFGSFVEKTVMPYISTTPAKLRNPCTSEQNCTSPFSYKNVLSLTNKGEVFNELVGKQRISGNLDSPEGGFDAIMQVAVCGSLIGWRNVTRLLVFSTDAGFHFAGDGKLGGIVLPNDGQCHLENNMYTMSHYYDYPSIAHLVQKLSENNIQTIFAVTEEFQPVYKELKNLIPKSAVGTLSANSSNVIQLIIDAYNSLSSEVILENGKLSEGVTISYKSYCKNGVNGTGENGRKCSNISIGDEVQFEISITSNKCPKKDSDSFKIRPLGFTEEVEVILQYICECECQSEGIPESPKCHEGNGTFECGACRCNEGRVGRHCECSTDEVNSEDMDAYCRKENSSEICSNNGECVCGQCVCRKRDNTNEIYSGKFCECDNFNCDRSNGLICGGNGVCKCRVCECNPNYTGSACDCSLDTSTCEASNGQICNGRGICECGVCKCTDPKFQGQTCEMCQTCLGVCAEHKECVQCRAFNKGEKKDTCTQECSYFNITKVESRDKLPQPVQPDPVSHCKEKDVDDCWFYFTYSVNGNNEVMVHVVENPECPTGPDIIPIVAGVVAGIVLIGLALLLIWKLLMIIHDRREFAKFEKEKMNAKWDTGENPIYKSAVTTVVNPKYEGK

B1: recombinant protein comprising the cellulose binding region of SEQ ID NO:4 (other)
chain: NATPTKGATPTNTATPTKSATATPTRPSVPTNTPTNTPANTPVSGNLKVEFYNSNPSDTTNSINPQFKVTNTGSSAIDLSKLTLRYYYTVDGQKDQTFWCDHAAIIGSNGSYNGITSNVKGTFVKMSSSTNNADTYLEISFTGGTLEPGAHVQIQGRFAKNDWSNYTQSNDYSFKSASQFVEWDQVTAYLNGVLVWGKEPGGSVVPSTQPVTTPPATTKPPATTKPPATTIPPSDDPNA
Q: Does B1 bind?
A: no binding (tested: highest array concentration)
